Results: the supplement of paper PMC9112550, “Optimization of the antimicrobial peptide Bac7 by deep mutational scanning” (BMC Biology, 2022)

Test system: Escherichia coli TOP10
Test: shrunken log2 fold change of peptide-encoding DNA abundance (4.5 h post-induction vs induction); higher = less antimicrobial activity (less host growth inhibition)
Conditions: time post-induction: 4.5 h; library: site-saturation at positions 5, 18, 19, 20
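Also: peptides expressed intracellularly from a pBAD plasmid library in pooled LB shake-flask culture, induced with 0.3% L-arabinose, DNA abundance read by NGS, three biological replicates, DESeq2 with apeglm shrinkage.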

| Sequence | shrunken log2 fold change |
| --- | --- |
| RRIRRRPPRLPRPRPRPLVQPRP | 0.355 |
| RRIRSRPPRLPRPRPRPNPHPRP | -0.139 |
| RRIRCRPPRLPRPRPRPQCHPRP | 0.134 |
| RRIRYRPPRLPRPRPRPTPMPRP | 0.843 |
| RRIRYRPPRLPRPRPRPQCMPRP | -0.931 |
| RRIRDRPPRLPRPRPRPNRPPRP | 0.0951 |
| RRIRIRPPRLPRPRPRPEDTPRP | 0.0265 |
| RRIRIRPPRLPRPRPRPQGFPRP | -0.129 |
| RRIRQRPPRLPRPRPRPHKSPRP | -0.0741 |
| RRIRSRPPRLPRPRPRPPGMPRP | -0.0105 |
| RRIRDRPPRLPRPRPRPDAEPRP | 1.23 |
| RRIRSRPPRLPRPRPRPVWMPRP | 0.396 |
| RRIRCRPPRLPRPRPRPPVKPRP | -0.00107 |
| RRIRIRPPRLPRPRPRPCMHPRP | -0.171 |
| RRIRTRPPRLPRPRPRPITWPRP | -0.252 |
| RRIRYRPPRLPRPRPRPICEPRP | -0.404 |
| RRIRNRPPRLPRPRPRPQYLPRP | -0.123 |
| RRIRNRPPRLPRPRPRPILWPRP | 0.123 |
| RRIRQRPPRLPRPRPRPGPRPRP | 0.565 |
| RRIRLRPPRLPRPRPRPMLGPRP | 0.0421 |
| RRIRRRPPRLPRPRPRPKITPRP | -0.226 |
| RRIRKRPPRLPRPRPRPSRYPRP | 0.086 |
| RRIRYRPPRLPRPRPRPKRHPRP | -0.159 |
| RRIRSRPPRLPRPRPRPQAWPRP | -0.0983 |
| RRIRDRPPRLPRPRPRPVQPPRP | 0.196 |

| Sequence | shrunken log2 fold change |
| --- | --- |
| RRIRSRPPRLPRPRPRPLTSPRP | 1.55 |
| RRIRTRPPRLPRPRPRPNPLPRP | -0.216 |
| RRIRDRPPRLPRPRPRPHHVPRP | -0.145 |
| RRIRSRPPRLPRPRPRPQTWPRP | -0.164 |
| RRIRQRPPRLPRPRPRPEYGPRP | -0.0248 |
| RRIRSRPPRLPRPRPRPYACPRP | -0.0148 |
| RRIRTRPPRLPRPRPRPFEQPRP | -0.225 |
| RRIRVRPPRLPRPRPRPFRQPRP | 0.0805 |
| RRIRDRPPRLPRPRPRPLFHPRP | -0.152 |
| RRIRSRPPRLPRPRPRPQNEPRP | -0.0107 |
| RRIRLRPPRLPRPRPRPRWLPRP | 0.398 |
| RRIRRRPPRLPRPRPRPVWVPRP | 0.566 |
| RRIRMRPPRLPRPRPRPETIPRP | 0.0625 |
| RRIRCRPPRLPRPRPRPDCRPRP | -0.195 |
| RRIRLRPPRLPRPRPRPGAVPRP | 0.375 |
| RRIRQRPPRLPRPRPRPDSFPRP | 0.0109 |
| RRIRRRPPRLPRPRPRPIQSPRP | 0.0301 |
| RRIRGRPPRLPRPRPRPDAVPRP | 1.81 |
| RRIRQRPPRLPRPRPRPACFPRP | 0.315 |
| RRIRKRPPRLPRPRPRPARMPRP | 0.905 |
| RRIRNRPPRLPRPRPRPAYEPRP | -0.0122 |
| RRIRHRPPRLPRPRPRPDHGPRP | -0.115 |
| RRIRHRPPRLPRPRPRPERRPRP | 0.0748 |
| RRIRCRPPRLPRPRPRPREDPRP | 0.0389 |
| RRIRDRPPRLPRPRPRPKIGPRP | -0.0266 |
